Biological target: the molecule itself
Assay: cross-linking; in vitro cross-link (BS3 or DSP) of purified protein in the presence of calcium; densitometry after DSP

| Protein | binding result |
| --- | --- |
| hippocalcin(T71N) (natural protein, human hippocalcin (HPCA) with the dystonia-causing mutation T71N, in pGEX-6P1; unmyristoylated; Mutation found homozygous in DYT2 dystonia patients; also called HPCA T71N; T71N mutant; source: E. coli BL21(DE3) STAR, purified (GST resin, PreScission cleavage, Superdex 200); not shown: GST, N-terminal, cleaved) not shown | binds |
| hippocalcin(A190T) (natural protein, human hippocalcin (HPCA) with the dystonia-causing mutation A190T, in pGEX-6P1; unmyristoylated; Mutation found homozygous in DYT2 dystonia patients; also called HPCA A190T; A190T mutant; source: E. coli BL21(DE3) STAR, purified (GST resin, PreScission cleavage, Superdex 200); not shown: GST, N-terminal, cleaved) not shown | binds |
